Measurements from patent US20240141039A1 (AGENUS, published 2024).
Each block holds one binder with its values, some of them ahead of it.

Tests used:
[1] = molecular target: T1, full-length isoform 2 ECD of cynomolgus monkey CD96 (His-tagged) (cynomolgus monkey); assay: SPR Biacore T200, Protein A capture, 1:1 model, experiment #2
T1 construct: also called His-tagged isoform 2 of cynomolgus monkey CD96; cyno CD96 extracellular domain isoform 2
T1 chain: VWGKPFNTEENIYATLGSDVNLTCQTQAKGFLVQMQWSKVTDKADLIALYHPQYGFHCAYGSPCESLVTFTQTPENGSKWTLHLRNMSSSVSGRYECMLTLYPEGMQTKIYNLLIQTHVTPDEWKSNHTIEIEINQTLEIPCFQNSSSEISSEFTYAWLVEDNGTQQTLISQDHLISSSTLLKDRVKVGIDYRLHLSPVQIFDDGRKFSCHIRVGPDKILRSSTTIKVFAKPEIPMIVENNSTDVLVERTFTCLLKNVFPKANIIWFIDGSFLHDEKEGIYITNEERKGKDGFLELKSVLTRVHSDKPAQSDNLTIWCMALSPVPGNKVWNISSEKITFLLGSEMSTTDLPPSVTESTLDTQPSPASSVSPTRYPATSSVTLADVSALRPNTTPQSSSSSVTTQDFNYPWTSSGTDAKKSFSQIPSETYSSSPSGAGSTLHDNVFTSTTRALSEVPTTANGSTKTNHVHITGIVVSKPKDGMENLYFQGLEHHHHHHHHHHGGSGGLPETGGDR
Protocol: (§1) Briefly, surface plasmon resonance experiments were performed using a Biacore T200 instrument, and the association rate (kₐ), dissociation rate (kd), and dissociation constant (KD) were calculated from each experiment using a 1:1 binding model with Biacore T200 Evaluation Software.
(§2) Multispecific molecules were captured using a 30-sec injection at a flow rate of 10 μl/min to reach about 350 resonance units (RUs). […] The sensor chip was regenerated between cycles with two 30-sec injections of 10 mM glycine, pH 1.5. Sensorgrams were evaluated and fit to a simple Langmuir 1:1 interaction model using the global data analysis option of BIAevaluation 3.0 software. Data quality was verified by visually inspecting deviations and curve fitting, and by evaluating the parameters of Rₘₐₓ, Chi2, and Tc.

[2] = molecular target: T2, full-length ECD of cynomolgus monkey TIGIT (His-tagged) (cynomolgus monkey); assay: SPR Biacore T200, Protein A capture, 1:1 model, experiment #1
T2 construct: also called His-tagged cynomolgus monkey TIGIT; cyno TIGIT extracellular domain
Protocol: as §1
as §2, with “Antibodies” for “Multispecific molecules”, “500” for “350”

[3] = molecular target: T3, full-length ECD of human TIGIT (His-tagged) (human); assay: as above
T3 construct: also called His-tagged human TIGIT; human TIGIT extracellular domain
T3 chain: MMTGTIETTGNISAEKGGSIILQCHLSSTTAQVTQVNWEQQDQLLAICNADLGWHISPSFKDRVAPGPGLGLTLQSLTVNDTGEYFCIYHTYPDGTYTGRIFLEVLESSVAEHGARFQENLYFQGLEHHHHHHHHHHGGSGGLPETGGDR
Protocol: as §1
as §2, with “Antibodies” for “Multispecific molecules”, “500” for “350”

[4] = molecular target: T2, full-length ECD of cynomolgus monkey …; assay: SPR Biacore T200, geomean of experiments #1 and #2
Protocol: as §1
as §2, with “Antibodies” for “Multispecific molecules”, “500” for “350”

[5] = molecular target: T3, full-length ECD of human TIGIT …; assay: SPR Biacore T200, geomean of experiments #1 and #2
Protocol: as §1
as §2, with “Antibodies” for “Multispecific molecules”, “500” for “350”

[6] = molecular target: T3, full-length ECD of human TIGIT …; assay: SPR Biacore T200, geomean of experiments #1 and #2
Protocol: as §1
as §2, with “1000” for “350”

[7] = molecular target: T4, wild type full-length human TIGIT expressed on cells (human, UniProt Q495A1 22-244); assay: flow cytometry, blocking of human CD155-Fc-PE binding to CHO cells expressing human TIGIT
T4 construct: whole, on cells; also called human TIGIT-CHO; human TIGIT CHO cells
T4 sequence (looked up): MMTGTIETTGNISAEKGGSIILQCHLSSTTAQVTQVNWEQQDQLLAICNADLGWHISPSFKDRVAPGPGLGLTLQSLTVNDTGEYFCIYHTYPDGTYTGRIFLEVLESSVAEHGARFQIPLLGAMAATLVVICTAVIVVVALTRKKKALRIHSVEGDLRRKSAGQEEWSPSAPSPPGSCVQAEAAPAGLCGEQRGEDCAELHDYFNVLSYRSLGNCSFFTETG
Protocol: A 4× concentrated intermediate stock of each multispecific molecule was prepared in a microplate. Antibodies were serially diluted 1-to-3 in FACS buffer. […] Lastly, 25 μL of human TIGIT-CHO cells, prepared as described above, were added to each well. After a 30-minute incubation on ice, the cells were washed twice with cold FACS Buffer, and the cells were analyzed by flow cytometry (BD LSR Fortessa Flow Cytometer). The data were analyzed using the FlowJo software by sequentially gating on the FSC-A vs. SSC-A and SSC-H vs. SSC-A. Mean fluorescence intensity (MFI) values for PE were calculated, and the data were plotted by GraphPad Prism software and analyzed as described above.

[8] = molecular target: CD8+ T cells (CD3-stimulated; Day 4); assay: flow cytometry on activated primary human T cells, gated CD8+, donor 2; PE anti-human IgG detection
Protocol: A total of 8 dilutions ranging from 50 μg/mL to 0.000005 μg/mL were prepared. After four days, the sample plates were centrifuged for two minutes at 2000 rpm, and supernatants were discarded. Samples were blocked with FcγR Block prepared in FACs buffer at 5 μL per 100 μL test for 10 minutes. Sample plates were then centrifuged for two minutes at 2000 rpm, and the supernatant was discarded. The cells were then re-suspended in 100 μL of anti-TIGIT×CD96 multispecific molecule or a relevant isotype control at the concentrations shown in FIGS. 26A-26F. Sample plates were incubated for 30 minutes at 4° C. Cells were washed by addition of cold sample buffer and centrifuged for two minutes at 2000 rpm, and the supernatant was discarded. This wash was repeated once.
Cells were then resuspended in a cocktail of fluorescently labeled antibodies. A cocktail of fluorescently labeled antibodies sufficient for all samples was prepared in FACs buffer. 100 μL of antibody per well was then added to a round-bottom 96-well plate. […]
Antibody binding was measured by flow cytometry using a BD LSR Fortessa Flow Cytometer. […] 100,000 events were recorded for each sample. Samples were analyzed by sequentially gating on the following populations: FSC-A vs. SSC-A, FSC-H vs. FSC-A, SSC-A vs. LIVE/DEAD, CD4 vs. CD8, and SSC vs. CD25. Mean fluorescence intensity (MFI) was calculated.

Kd [1]: 42.7 nM
koff [1]: 0.00324 s⁻¹
kon [1]: 75900 M⁻¹ s⁻¹
B1: anti-TIGIT×CD96 multispecific molecule BA123 (bispecific antibody, human IgG1, kappa, lambda)
heavy 1: QVQLVQSGAEVKKPGASVKVSCKASGYTFTSYGISWVRQAPGQGLEWMGWISAYNANTNYAQKLQGRVTMTTDTSTSTAYMELRSLRSDDTAVYYCARSAGVLGGMDVWGRGTLVTVSSASTKGPSVFPLAPSSKSTSGGTAALGCLVKDYFPEPVTVSWNSGALTSGVHTFPAVLQSSGLYSLSSVVTVPSSSLGTQTYICNVNHKPSNTKVDKRVEPKSCDKTHTCPPCPAPELLGGPDVFLFPPKPKDTLMISRTPEVTCVVVDVSHEDPEVKFNWYVDGVEVHNAKTKPREEQYNSTYRVVSVLTVLHQDWLNGKEYKCKVSNKALPAPIEKTISKAKGQPREPQVYTLPPSREEMTKNQVSLSCAVKGFYPSDIAVEWESNGQPENNYKTTPPVLDSDGSFFLVSKLTVDKSRWQQGNVFSCSVMHEALHNHYTQKSLSLSPG
light 1: not shown
heavy 2: EVQLVQSGAEVKKPGSSVKVSCKASGYTFASYGISWVRQAPGQGLEWMGGITPFFNRVDVAEKFQGRVTITADKSTSTAYIELSSLRSEDTAVYYCARDLRRGGVGDAFDIWGRGTLVTVSSASTKGPSVFPLAPSSKSTSGGTAALGCLVKDYFPEPVTVSWNSGALTSGVHTFPAVLQSSGLYSLSSVVTVPSSSLGTQTYICNVNHKPSNTKVDKRVEPKSCDKTHTCPPCPAPELLGGPDVFLFPPKPKDTLMISRTPEVTCVVVDVSHEDPEVKFNWYVDGVEVHNAKTKPREEQYNSTYRVVSVLTVLHQDWLNGKEYKCKVSNKALPLPEEKTISKAKGQPREPQVYTLPPSREEMTKNQVSLWCLVKGFYPSDIAVEWESNGQPENNYKTTPPVLDSDGSFFLYSKLTVDKSRWQQGNVFSCSVMHEALHNHYTQKSLSLSPG
light 2: QSALTQPRSVSGSPGQSVTISCTGTSPDVGSHAYRSWYQQHPGKAPKLMIYEVSYRPSGVSNRFSGSKSGNTASLTISGLQAEDEADYYCSSYPPSSATVFGAGTKLTVLGQPKAAPSVTLFPPSSEELQANKATLVCLISDFYPGAVTVAWKADSSPVKAGVETTTPSKQSNNKYAASSYLSLTPEQWKSHRSYSCQVTHEGSTVEKTVAPTEC
notes: copies: 1 + 1 + 1 + 1

Kd [2]: 3.8 nM
koff [2]: 0.00127 s⁻¹
kon [2]: 334000 M⁻¹ s⁻¹
Kd [3]: 0.535 nM
koff [3]: 0.000413 s⁻¹
kon [3]: 773000 M⁻¹ s⁻¹
Kd [4]: 3.9 nM
Kd [5]: 0.54 nM
B2: anti-TIGIT monospecific antibody BA148 (antibody, human IgG1, lambda)
heavy: EVQLVQSGAEVKKPGSSVKVSCKASGYTFASYGISWVRQAPGQGLEWMGGITPFFNRVDVAEKFQGRVTITADKSTSTAYIELSSLRSEDTAVYYCARDLRRGGVGDAFDIWGRGTLVTVSSASTKGPSVFPLAPSSKSTSGGTAALGCLVKDYFPEPVTVSWNSGALTSGVHTFPAVLQSSGLYSLSSVVTVPSSSLGTQTYICNVNHKPSNTKVDKRVEPKSCDKTHTCPPCPAPELLGGPDVFLFPPKPKDTLMISRTPEVTCVVVDVSHEDPEVKFNWYVDGVEVHNAKTKPREEQYNSTYRVVSVLTVLHQDWLNGKEYKCKVSNKALPLPEEKTISKAKGQPREPQVYTLPPSREEMTKNQVSLTCLVKGFYPSDIAVEWESNGQPENNYKTTPPVLDSDGSFFLYSKLTVDKSRWQQGNVFSCSVMHEALHNHYTQKSLSLSPGK
light: B1 light 2
notes: IgG1; also called anti-TIGIT IgG1 antibody BA148

Kd [6]: 0.59 nM
IC50 (read off the curve) [7]: ~0.1 µg/mL
EC50 (read off the curve) [8]: ~0.3 µg/mL
B3: anti-TIGIT×CD96 multispecific molecule BA127 (bispecific antibody, human IgG1, kappa, lambda)
heavy 1: QVQLVQSGAEVKKPGASVKVSCKASGYTFTTYALHWVRQAPGQRLEWMGWINTGSGDTKYSQKFQGRVTITRDTSASTAYMELSSLRSEDTAVYYCARSLGVYYGMDVWGQGTLVTVSSASTKGPSVFPLAPSSKSTSGGTAALGCLVKDYFPEPVTVSWNSGALTSGVHTFPAVLQSSGLYSLSSVVTVPSSSLGTQTYICNVNHKPSNTKVDKRVEPKSCDKTHTCPPCPAPELLGGPDVFLFPPKPKDTLMISRTPEVTCVVVDVSHEDPEVKFNWYVDGVEVHNAKTKPREEQYNSTYRVVSVLTVLHQDWLNGKEYKCKVSNKALPAPIEKTISKAKGQPREPQVYTLPPSREEMTKNQVSLSCAVKGFYPSDIAVEWESNGQPENNYKTTPPVLDSDGSFFLVSKLTVDKSRWQQGNVFSCSVMHEALHNHYTQKSLSLSPG
light 1: not shown
heavy 2: B1 heavy 2
light 2: B1 light 2
notes: Anti-CD96 arm = BA139, anti-TIGIT arm = BA150; copies: 1 + 1 + 1 + 1
